# Results reported in PMC4880913, “Solution structure and binding specificity of the p63 DNA binding domain”.
# Residue numbers refer to the chain shown, from its start.
# T1: p63-DBD (UniProt Q9H3D4 153-388)
# T1 sequence: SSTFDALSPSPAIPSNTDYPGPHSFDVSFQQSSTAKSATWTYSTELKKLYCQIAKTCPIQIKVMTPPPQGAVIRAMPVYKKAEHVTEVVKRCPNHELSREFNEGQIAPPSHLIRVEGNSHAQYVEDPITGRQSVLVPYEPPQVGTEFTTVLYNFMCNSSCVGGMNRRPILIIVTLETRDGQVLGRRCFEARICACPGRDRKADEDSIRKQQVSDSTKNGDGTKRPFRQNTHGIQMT
# T2: p63-DBD L210E (UniProt Q9H3D4 153-388, L249E)
# T2 sequence: T1 sequence with L97E
# B1: con2 x 5 (NMR) (dsDNA)
# DNA 1: TTAGGACATGTCCATC
# DNA 2: GATGGACATGTCCTAA
# B2: con2 x 5 (FP) (dsDNA)
# DNA 1: TTAGGACATGTCCATC
# DNA 2: GATGGACATGTCCTAA
# Legend:
# p63-DBD = biological target: T1, p63-DBD; test: NMR titration (1H-15N TROSY); 100 mM NaCl; FP: 100 nM 5'-fluorescein dsDNA, 10 mM sodium phosphate pH 7.2, 1 mM DTT, temperature not stated; NMR: 1 mM sodium phosphate pH 7.2, 100 mM NaCl, 5 mM DTT, 303; conditions: protein: recombinant; tags: His-tag removed with thrombin (pET28a construct); blunt
# p63-DBD L210E = biological target: T2, p63-DBD L210E; test: fluorescence polarization; FP: 100 nM 5'-fluorescein dsDNA, 10 mM sodium phosphate pH 7.2, 1 mM DTT, temperature not stated; NMR: 1 mM sodium phosphate pH 7.2, 100 mM NaCl, 5 mM DTT, 303; conditions: protein: recombinant; label: 5'-fluorescein; blunt
# p53-DBD = p53-DBD (UniProt P04637 94-312); test: as above; conditions: protein: recombinant; chain copies: 2; label: 5'-fluorescein; blunt
# Chain of p53-DBD (P04637 94-312): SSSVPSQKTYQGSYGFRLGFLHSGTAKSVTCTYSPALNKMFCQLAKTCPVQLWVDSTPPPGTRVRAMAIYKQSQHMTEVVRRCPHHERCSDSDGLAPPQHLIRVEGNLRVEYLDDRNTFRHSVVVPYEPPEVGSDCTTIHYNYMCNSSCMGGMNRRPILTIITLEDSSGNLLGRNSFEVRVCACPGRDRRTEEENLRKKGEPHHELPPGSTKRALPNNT
Binder,binding result (p63-DBD),binding result (p63-DBD L210E),binding result (p53-DBD)
B1,binds,–,–
B2,–,binds,binds
